Among the data in CN116143909A are OD450 (ref 630 nm) values, retold here.

Experiment [1] concerns the target HIV-1 P24抗原(购自菲鹏) (HIV-1) (UniProt P04591). Description: indirect ELISA, P24 coated at 1 ug/ml, antibody at 62.5 ng/ml, goat anti-human IgG-HRP.
For experiment [2] the target is unchanged. Description: indirect ELISA, P24 coated at 1 ug/ml, antibody at 15.625 ng/ml, goat anti-human IgG-HRP. On the technique in general: ELISA stands for enzyme-linked immunosorbent assay.
The target is the same in experiment [3]. Description: indirect ELISA, P24 coated at 1 ug/ml, antibody at 31.25 ng/ml, goat anti-human IgG-HRP.
For experiment [4] the target is unchanged. Description: indirect ELISA, P24 coated at 1 ug/ml, antibody at 250 ng/ml, goat anti-human IgG-HRP.
Experiment [5] shares this target. Description: indirect ELISA, P24 coated at 1 ug/ml, antibody at 125 ng/ml, goat anti-human IgG-HRP.
Experiment [6] has the same target. In words: indirect ELISA, P24 coated at 3 ug/ml, supernatant of transiently transfected CHO cells diluted 1000-fold, goat anti-human IgG-HRP.

In the case of 对照抗体 (antibody), the OD450 (ref 630 nm) in experiment [1] was 0.756 OD; in experiment [2] it was 0.337 OD; in experiment [3], 0.537 OD; in experiment [4], 1.57 OD; in experiment [5] it was 1.28 OD.

B1: 6F13RMb1 (antibody, human IgG1, kappa, V domains shown)
VH: QVQLVQSGAEVKKPGSSVKVSCKASGGTFSSYAISWVRQAPGQGLEWMGGSIPIFGTTHYAQKFQGRVAIIVDESTSTSYMELSSLRSDDTAAYYCARAATAIFGVPRNNFYAMEVWGQGTTVTVSS
VL: DIVMTQSPLSLSVTPGEPASISCRSSQSILHSNGYNYLDWYLQRPGQSPKLLIYIGSTRASGVPDRFSGSGSGTDFTLKISRVEAEDVGVYYCMQAVQTFFGPGTKVDLKR
As for B1, the OD450 (ref 630 nm) is 1.03 OD in experiment [1]; 0.455 OD in experiment [2]; 0.673 OD in experiment [3]; 1.52 OD in experiment [4]; 1.42 OD in experiment [5]; over 1 OD in experiment [6].
